# Results published in patent US20060058231A1.
# Substitutions are numbered along the chain they refer to.
# B1: 492 (ligand)
# BMP-7 mature domain: STGGKQRSQNRSKTPKNQEALRMASVAENSSSDQRQACKKHELYVSFRDLGWQDWIIAPEGYAANYCEGECAFPLNSHMNATNHAIVQTLVHFINPETVPKPCCAPTQLNAISVLYFDDSSNVILKKYRNMVVRACGCH
# B2: 471 (ligand)
# BMP-7 mature domain: B1 BMP-7 mature domain with K39S, N65Y, H78Y, N130D
# Target: anti-BMP-7 antibodies of the commercial ELISA (R&D Systems ELISA Duoset Cat#DY354)
# Assay: sandwich ELISA (R&D Systems BMP7 ELISA Cat#DY354), BMP-7 protein titrated, % ELISA signal; the EC50 column carries no unit, the concentration axis is in ug/mL
row,Binder,EC50 [ng/mL]
1,B1,1.74
2,B2,0.755
